Here are results for 16 sequences from the nanobody polyreactivity screen of Harvey et al. (2022).

This series can be described thus: yeast display, Sf9 membrane polyspecificity reagent, FACS + sequencing; frameworks hold sequencing errors. A digest of the protocol:
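Nanobodies from a synthetic yeast display library (Saccharomyces cerevisiae BJ5465), induced 36–48 hours with galactose, were stained 1 hour at 4 °C with 10% biotinylated, detergent-solubilized Sf9 membrane reagent, enriched on streptavidin microbeads, then FACS-sorted. Anti-HA (expression) and streptavidin (reagent binding) fluorescence set low and high (top ~1%) gates. Polyreactivity labels come from the gate of origin. Genes were colony-PCR amplified, MiSeq 2 × 250 sequenced and filtered by CDR length.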
In the case of “QVQLVESGGGLVQAGGSLRLSCAASGRIFYFYAMGWYRQAPGKERELVASISSGSSTNYADSVKGRFTISRDNAKNTVYLQMNSLKPEDTAVYYCAAQPWHGSRARSYYWGQGTQVTVSS”, the “polyreactivity (PSR sort gate)” value was “high polyreactivity”. In the case of “QVQLVESGGGLVQAGGSLRLSCAASGRIFYGNAMGWYRQAPGKERELVAVITSSGGSTYYADSVKGRFTISRDNAKNTVYLQMNSLKPEDTAVYYCAKYYRHWYTHLGYDYWGQGTQVTVSS” it was “high polyreactivity”; in that of “QVQLVESGGGLVQAGGSLRLSCAASGRIFYGNAMGWYRQAPGKEREWVAAISSGTSTNYADSVKGRFTISRDNAKNTVFLQMNSLKPEDTAVYYCADGSYSRYLYSLYFDFDYWGQGTQVTVSS”, “low polyreactivity”; in that of “QVQLVESGGGLVQAGGSLRLSCAASGRIFYGNTMGWYRQAPGQERELVATITRSGGSTYYADSVKGRFTISRDNAKNTVYLQMNNLKPEDTAVYYCAVGYWRLFPYGYWGQGTQVTVSS”, “high polyreactivity”. Next, “QVQLVESGGGLVQAGGSLRLSCAASGRIFYGNVMGWYRQAPGKERELVAVITSGGNTNYADSVKGRFTISRDNAKNTVYLQMNSLKPEDTAVYYCATAVVAGVWGYDYWGQGTQVTVSS”: “low polyreactivity”; “QVQLVESGGGLVQAGGSLRLSCAASGRIFYGYAKGWYRQAPGKERELVASISRRGYSTYYADSVKGRFTISRDNAKNTVYLQMNSLKPEDTAVYYCAAGYYPFNYWCQGTQVTVSS”: “high polyreactivity”. Next, “QVQLVESGGGLVQAGGSLRLSCAASGRIFYGYAMGWYRQAPGKERELVAAISSGGITYYADSVKGRFTISRDNAKNTVYLQMNSLKPEDTAVYYCAAEPWYKFDYDYWGQGTQVTVSS”: “low polyreactivity”. For “QVQLVESGGGLVQAGGSLRLSCAASGRIFYGYAMGWYRQAPGKERELVAAISWRGGRTYYADSVKGRFTISRDNAKNTVYLQMNSLKPEDTAVYYCAVRWPSARIPVKLDYWGQGTQVTVSS”, the “polyreactivity (PSR sort gate)” value is given as “high polyreactivity”.

In the case of “QVQLVESGGGLVQAGGSLRLSCAASGRIFYGYAMGWYRQAPGKERELVAAITSGSRTNYADSVKGRFTISRDNAKNTVYLQMNSLKPEDTAVYDCHSRYGSYLYSLVHNTRYDYWGQGTQVTVSS”, the “polyreactivity (PSR sort gate)” value is “low polyreactivity”. In the case of “QVQLVESGGGLVQAGGSLRLSCAASGRIFYGYAMGWYRQAPGKEWELVAAITDSGGITYYADSVKGRFTISRDNAKKTVYLQLNSLKPEDTAVYYCTALVRDPAWLSRVGYSGDYWGQGTQVTVSS” it was “high polyreactivity”; in that of “QVQLVESGGGLVQAGGSLRLSCAASGRIFYGYDMGWYRQAPGKERELVAAITRGVSTYYADSVKGRFTISRDNAKNTVYLQMNSLKPEDTAVYYCAADLSPYVNYWWEYYYWGQGTQVTVSS”, “low polyreactivity”. Next, “QVQLVESGGGLVQAGGSLRLSCAASGRIFYGYTMGWYRQAPGKERELVAAITWSGGSTHYADSVKGRFTISRDNAKNTVYLQMNSLKPEDTAVYYCNARRRSVYRGLYDYWGQGTQVTVSS”: “high polyreactivity”; “QVQLVESGGGLVQAGGSLRLSCAASGRIFYGYTMVWYRQAPGKERELVAAISWSGGSTSYADSVKGRFTISRDNAKNTVYLQMKSMKPEDTAVYYCAVRYPGYRQYWGYTYDYWGQGTQVTVSS”: “high polyreactivity”. In the case of “QVQLVESGGGLVQAGGSLRLSCAASGRIFYHYAMGWYRQAPGKERELVAVIRSTGSTNYADSVKGRFTISRDNAKNTVYLQMNSLKPEDTAVYYCAVRRATYSYWYFNGGYWGQGTQVTVSS” it was “high polyreactivity”. On to “QVQLVESGGGLVQAGGSLRLSCAASGRIFYIIAMVWYRQAPGKEWELVASITGSGGRTYYADSVKGRFTISRDNAKNTVYLQMNSLKPEDTAVYYCNADLYVGYLYYLYDYWGQGTQVTVSS”, for which the “polyreactivity (PSR sort gate)” value is given as “low polyreactivity”. “QVQLVESGGGLVQAGGSLRLSCAASGRIFYINAMGWYRQAPGKERELVAAISWSGSSTYYADSVKGRFTISRDNAKNTIYLQMNSLKPEDTAVYYCATVYYDNHYSAGYDYRGQGTQVTVSS”: the “polyreactivity (PSR sort gate)” value is “high polyreactivity”.
